According to the nanobody polyreactivity screen of Harvey et al. (2022):

Assay: yeast display, Sf9 membrane polyspecificity reagent, FACS + sequencing; frameworks hold sequencing errors
How it was run: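 A nanobody's polyreactivity label depends on the gate it was sorted from. Yeast display cells were stained with 10% biotinylated, detergent-solubilized Sf9 membrane reagent for 1 hour at 4 °C, enriched on streptavidin microbeads and sorted by FACS. The low and high (top ~1%) gates were set on anti-HA fluorescence for expression and streptavidin fluorescence for reagent binding.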
In the case of “QVQLVESGGGLDQARGSLRLSCAASGRTFYSYAMGWYRQAPGKERELVAAISKRGTSTYYADSVKGRFTISRDNAKNTVYLQMNSLKPEDTAVYYCDAGAYIWDIYSYRWYDYWGQGTQVTVSS”, the “polyreactivity (PSR sort gate)” value is reported as “high polyreactivity”.
For “QVQLVESGGGLVQAGGSLRLSCAASGINISYYAMGWYRQAPGKEREFVAAISWSVGSTYYADSVKGRFTISRDNAKYTVYLQMNSLKPEDTAVYYCAAEDGYWPTYYYWGQGSQVTVSS”, the “polyreactivity (PSR sort gate)” value was “high polyreactivity”.
With “QVQLVESGGGLVQAGGSLRLSCAASGRTFNYNAMGWYRQAPGTERELVAAINYNGGSTYYADSVKGRFTISRDNAKNTVYLQMNSLKPEDTAVYYCAADQSTVLDVGSWGQGTQVTVSS” the “polyreactivity (PSR sort gate)” value was “low polyreactivity”.
With “QVQLVESGGGLVQAGGSIRLSCAASGSTFKTYVMGWYRQAPGKERELVAAISFSDGTTYYADSVKGRFTISRDNAKNTVYLQMNSLKPEDTAVYYCAAEGYQSQYDYWGQGTQVTVSS” the “polyreactivity (PSR sort gate)” value was “high polyreactivity”.
For “QDQLVESGGGLVQAGGSLRLICAASGRTFYPYVMGWYRQAPGKERDLVAAITDSGGNTYYADSVKGRFTISRDNAKNTVYLQMNSLKPEDTAVYYCNARFYYPSRRGTFQYNYWGQGTQVTVSS”, the “polyreactivity (PSR sort gate)” value was “low polyreactivity”.
In the case of “QVQLVESGGGLVHAGGSLRLSCAACGNIFKYYTMGWYREAPGKERELVDAITSGGRTNYADSVKGRFTISRDNAKNTVYLKMNSLKPEDTAVYYCAAYDVIYSQGFDYWGQGTQVTVSS”, the “polyreactivity (PSR sort gate)” value is reported as “low polyreactivity”.
In the case of “QVQLVESGGGLVQARGSLRLSCAASGNTFVRNVMGWYRKAPGKERELFAAITWRSVRTDYADSVKGRFTISLDNAKNTVNLQMNSLKPEDTAVYNCAAPSASRHGEYDYWGQGTQVTVSS”, the “polyreactivity (PSR sort gate)” value is reported as “low polyreactivity”.
For “QVQLVESGGGLVQAGGSLRLSCAASGRIFFVYAMGWYRQAPGKERELVAHIPSGGSTSYADSVKGRFTISRDNAKNTDYLQMNSLKPEDTAVYSCAARYLGYIYVYYHYTDDYWGQGTQVTVSS”, the “polyreactivity (PSR sort gate)” value was “low polyreactivity”.
With “QVQLVESGGGLVQAGGSLRLICAASGRIFGYYAMGWYRQAPGKERELVAAIDGSDGTTYYADSVKGRFTISRDNAKNTVYFHMNSLKPEDTAVYYCAKDNSLPDYDYWGQGTQVTVSS” the “polyreactivity (PSR sort gate)” value was “low polyreactivity”.
In the case of “QVQLVESGGGLVQAGGRLRLSCAASGRTFGYNAMGWYRQAPGKERELVAAITYSGGRTYYADSVKGRFTISRDNAKNTVYLQMNSLKPEDTAVYYCAALTRRVKKYDYWGQGTQVTVSS”, the “polyreactivity (PSR sort gate)” value is reported as “high polyreactivity”.
For “QVQLVESGGGLVQAGGSLRLSCAASGSIFTAYAMGWYRQAPGKEMELVAAITYNGGSTYYADSVKGRFTISRDNAKNTVYLQMNSLKPEDTAVYYCAARYWFYYDLYDYWGQGTQVTVSS”, the “polyreactivity (PSR sort gate)” value was “low polyreactivity”.
With “QVQLVESGGGLVQAGGSLRLSCAASGSILQHYAMGWYRQAPGKERELVASISWTGGSTYYADSVKGRFTISRDNAKNTVYLQMNSLKPEDTAVYYCAARRYRYYSRGSWGQGTQVTVSS” the “polyreactivity (PSR sort gate)” value was “high polyreactivity”.
In the case of “QVQLVESGGGLVQAGGSLRLSCAASGRIFTKYAMGWYRQAPGKERELVAGISSSGGSTYYADSVKGRFTISRDIAKNTVYLQMNSLKPEDTAVYYCAARGYYKYDYWGQGTQVTVSS”, the “polyreactivity (PSR sort gate)” value is reported as “high polyreactivity”.
For “QVQLVESGGGLVQAGGSLRLSCAASGITFIPNAMGWYRQAPGKERELVAAISISGGRTYYADSVKGRFTISRDNAKNPVYLQMNSLKPEDTAVYYCAADRADFFVIRTIDPYDYWGQGTQVTVSS”, the “polyreactivity (PSR sort gate)” value was “low polyreactivity”.
For “QVQLVESGGGLVQAGGSLRLSCAASGFIFWLYAMGWYRQAPGKEREVVAGITRGGGSTYYADSVKGRFTISRDNAKNTVYLQMNSLKPEDTAVYYCAADAWSSYLDRPFDYWGQGTQVTVSS”, the “polyreactivity (PSR sort gate)” value was “high polyreactivity”.
In the case of “QVQLVESGGGLVQAGGSLRLSCAASGRTFYYYAMGWYRQAPGKERELVASITFSGGRTYYADSVKGRFTISRDNAKNTVYLQMNSLKPEDTAVYYFARPYYGRYYPNYGVTGVDYWGQGTQVTVSS”, the “polyreactivity (PSR sort gate)” value is reported as “high polyreactivity”.
For “QVQLVESGGGLVQAGGSLRLSCAASGIIFRGNAMGWYRQEPGKESEIVAAISLRGSRTYYADSVKGRFTISRDNAKNTVYLQMNSLKPEDSAVYYCNARGGTSPFGSDYWGQGTQVTVSS”, the “polyreactivity (PSR sort gate)” value was “high polyreactivity”.
For “QVQLVESGGGLVQAGGSLRLSCAASGRTFHYYAMGWYRQAPGKERELVAAISRGGNTYYADSVKGRFTISRDNAKNTVYLQMNSLKPEDTAVYYCAKDNHFEAYRYDYWGQGTQVTVSS”, the “polyreactivity (PSR sort gate)” value was “high polyreactivity”.
For “QVQLVESGGGLVQAGGSLRLSCAASGIIFLGYARGWYRQAPGKERELVADIYSGVRTYYADSVKGRFTISRDNAKNTVYLQMNSLKPEDTAVYYCNATWTPYSSKQYYYWGQGTQVTVSS”, the “polyreactivity (PSR sort gate)” value was “low polyreactivity”.
With “QVQLVESGGGLVQAGGSLRLSCAASGSIFKRNVMGWYRQAPGKERELVAAITWSGASTYYADSVKGRFTISRDNAKITVYLQMNSLKPEDTAVYYCAARGPSRRRDGSDYWGQGTQVTVSS” the “polyreactivity (PSR sort gate)” value was “high polyreactivity”.
With “QVQLVESGGGLVQAGGSLRLSCAASGITFRYYTMGWYRQAPGKERELVAVISWSGGSTYYADSVKGRFTISRDNAKNTVYLQMNSLKPEDTAVYYCAAVRRISRYDYWGQGTQVTVSS” the “polyreactivity (PSR sort gate)” value was “high polyreactivity”.
With “QVQLVESGGGLVQAGGSLRLSCAATGIIFGHYAMGWYRQAPGKERELVAAITSGGRTYYADSVKGRFTISRDNAKNTVYLQMNSLKPEDTAVYYCNVDQGYQGYLRIFDYWGQGTQVTVSS” the “polyreactivity (PSR sort gate)” value was “low polyreactivity”.
In the case of “QVQLVESGGGLVQAGGSLRLSCAASGSTFSIYAMGWYRKAPGKERELVAAISTDGGSTNYADSVKGRFTISRDNAKNTVYLQMNILKPEDTAVYYCAADTYWYLSPYDYWGQGTQVTVSS”, the “polyreactivity (PSR sort gate)” value is reported as “low polyreactivity”.
With “QVQLVESGGGLVQAGGSLRLSCAASGRIIGGYAMGWYRQAPGKERELVAAITFRSGTTYYADSVKGRFTISRDNAKNTVYLQMNSLKPEDTAVYYCAARWGPYAFTYVRTYDYWGQGTQVTVSS” the “polyreactivity (PSR sort gate)” value was “low polyreactivity”.
With “QDQLVESGGGLVQAGGSLRLSCAASGFTFHNNVMGWYRQAPGKERELVATISKSGGSTYYADSVKGRITISRDNAKNTVYLQMNSLKPEDTAVYYCARRYRDYGRYGYWGQGTQVTVSS” the “polyreactivity (PSR sort gate)” value was “high polyreactivity”.
For “QVQLVESGGGLVQAGGSLRLSCAASGLIFYAYVMGWYRPAPGKERELVAAITVSGGSTYYADSVKGRFTISRDNAKNTVYLQMNSLKPEDTAVYYCAADWNFYQRTFDSWGQGTQVTVSS”, the “polyreactivity (PSR sort gate)” value was “low polyreactivity”.
In the case of “QVQLVESGGGLVQAGGSLRLSCAASGITFNSYRMVWYRQAPVKERELVAAISGSGSSTYYADSVKGRFTISRDNAKNTVYLQMNSLKPEDTGVYYCADVSGKNVDFVWVLAYPRLDYWGQGTQVTVSS”, the “polyreactivity (PSR sort gate)” value is reported as “low polyreactivity”.
In the case of “QVQLVESGGGLVQAGGSLRLSCAASGRTFHTYAMGWYRQAPGKERELVARITRSGTSTYYADSVKGRFTISRDNAKNTVYLQMNSLKPEDTAVYYCAKPWFLWGYSTSYDWGQGTQVTVSS”, the “polyreactivity (PSR sort gate)” value is reported as “high polyreactivity”.
In the case of “QVQLVESGGGLVQAGGSLRLSCAASGSTFPSNVMGWNRQAPVKERELVAAITWSGVRTYYADSVKGRFTISRDNAKNTVYLQMNSLKPEDTAVYYCAARSTYVRYDYWGQGTQVTVSS”, the “polyreactivity (PSR sort gate)” value is reported as “high polyreactivity”.
For “QVQLVESGGGLVQAGGSLRLSCAASGIIFDRYAMGWYRQAPGKERELVAAISWSGGRTYYADSVKGRFTISRDNAKNTVYLQMNSLKPEDTAVYYCAAKPSVDLDYWGQGTQVTVSS”, the “polyreactivity (PSR sort gate)” value was “high polyreactivity”.
With “QVQLEESGGGLVQAGGSLRLSCDASGRIFGGYAMGWYRQAPGKERELVAAISASGGRTYYADSVKGRFTISRDNAKNTVYLQMNSLKPEDTAVYYCAASFRRTSLRWHGEYWGQGTQVTVSS” the “polyreactivity (PSR sort gate)” value was “high polyreactivity”.
For “QVQLVESGGGLVQAGGSLRLSCPASGFTILDYAMGWYRQAPGKEREMVATINWSDVSTYYADSVKGRFTISRDTAKNTVYLQMNSLKPEDTAVYYCAVDVLTVGQSYDHWGQGTQVTVSS”, the “polyreactivity (PSR sort gate)” value was “high polyreactivity”.
In the case of “QVQLVESGGGLVQAGGSLRLSCAASGRTIRYYTMGWYRQAPGKETELVATITGTGSTNYADSVKGRFTISRDNAKNTVYFQMNSLKPEDTEVYYCNARWDFVGTWRIYNYWGQGTQVTVSS”, the “polyreactivity (PSR sort gate)” value is reported as “high polyreactivity”.
With “QVQLVESGGGLVQAGGSLRLSCAASGITFFRNAMGWYRQAPGKERELVAGISTTGGRTYYADSVKGRFTISRDKAKNTVYLQMNSLKPEDTAVYYCNTLVPRAGREYDYWGQGTQVTVSS” the “polyreactivity (PSR sort gate)” value was “high polyreactivity”.
For “QVQLVESGGGLVQAGGSLRLSCAASGSIFNTYAMGWYRQAPGKEREFVASISRSGGSTRYADSVKGRFTISRDNAKNTVYLQMNSLIPEDTAVYYCAASWLGASGIRYDYWGQGTQVTVSS”, the “polyreactivity (PSR sort gate)” value was “high polyreactivity”.
For “QVHLVESGGGLVQAGGSLRLSCAASGSISVANAMGWYRQAPGKERELVAAITDSGDDTYYADSVKGRFTISRDNAKNTVYLQMNSLKPEDTAVYYCAVEAWSVPPYDYWGQGTQVTVSS”, the “polyreactivity (PSR sort gate)” value was “low polyreactivity”.
With “QDQLVESGGGLVQAGGSLRLSCAASGRTFYQYAMGWYRQAPGKERELVAAITFRGGSTNYADSVKGRFTISRDNAKNTVYLQMNSLKPEDTAVYYCAATVYGTVYKGRSQYEYGYWGQGTQVTVSS” the “polyreactivity (PSR sort gate)” value was “high polyreactivity”.
In the case of “QVQLVESGGGIVQAGGSLRLSCAASGSTFSSYAMGWYRQAPGKERELVAGITNSGGSTYYADSVKGRFTISRDNAKNTVYLQMNSLKPEDTAVYYCAAFPRTYSGYYYWGQGTQVTVSS”, the “polyreactivity (PSR sort gate)” value is reported as “high polyreactivity”.
For “QVQLVESGGGLVQAGGSLRLSCAASGRTRGVNAMGWYSQAPGKERELVAAITRRGGSTSYADSVKGRFTISRDNEKNTVYLHMNSLKPEDTAVYYCAAGVIREKYYIWSDYEYDYWGQGTQVTVSS”, the “polyreactivity (PSR sort gate)” value was “low polyreactivity”.
In the case of “QVQLVESGGGLVQAGGSLRLSCAASGFTYKYYAMGWYRQAPGKERELVAAITRGGDTYYADSVKGRFSISRDNAKNTVYLQMNSLKPEDTAVYYCNTASDKRAFDYWGQGTQVTVSS”, the “polyreactivity (PSR sort gate)” value is reported as “low polyreactivity”.
In the case of “QVQLVESGGGLVQAGGSLRLICAASGYIFATYAMGWYRQAPGKERELVAAITSTGSTYYADSVKGRFTISRDNAKNTVYLQMNSLKPEDTAVYYCAAVSGYRARYYLYYYWGQGTQVTVSS”, the “polyreactivity (PSR sort gate)” value is reported as “high polyreactivity”.
